Measurements reported in the nanobody polyreactivity screen of Harvey et al. (2022).

Experiment: yeast display, Sf9 membrane polyspecificity reagent, FACS + sequencing; frameworks hold sequencing errors
In short: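 Synthetic nanobody libraries on Saccharomyces cerevisiae BJ5465 were galactose-induced for 36–48 hours, stained 1 hour at 4 °C with 10% biotinylated, detergent-solubilized Sf9 membrane reagent and enriched on streptavidin microbeads. FACS then separated cells into low and high (top ~1%) gates by anti-HA (expression) and streptavidin (reagent binding) fluorescence. Genes were colony-PCR amplified, MiSeq 2 × 250 sequenced and CDR-length filtered. A clone's polyreactivity label is that of its gate of origin.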

QVQLVESGGGLVQAGGSLRLSCAASGSIFPWNAMGWYRQAPGKERELVAGINESGGSTYYADSVKGRFTISRDNAKNTVYLQMNSLKPEDTAVYYCAADGYPSVGDDYWGQGTQVTVSS
polyreactivity (PSR sort gate): low polyreactivity

QVQLVESGGGLVQAGGSLRLSCAASGSIIGIYAMGWYRQAPGKERELVAAISWSGGSTYYADSVKGRFTISRDNAKNTVYLQMNSLKPEDTAVYYCNAYPAYLDDYWGQGTQVTVSS
polyreactivity (PSR sort gate): low polyreactivity

QVQLVESGGGLVQAGGSLRLTCAASGSIFYYNAMGWYRQAPGKERELVAAISSDGSTYYADSVKGRFTISRDNAKNTVYLQMNSLKPEDTAVYYSAAATLTWSRWGSYYEYDYWGQGTQVTVSS
polyreactivity (PSR sort gate): low polyreactivity

QVQLVESGGGLVQAGGSLRLSCAASGRNLIAYAMGWYRQAPGKEREFVAAIRADDGRTYYADSVKGRFTISRDNAKITVYLQMTSLKPEDTAVYYCAAEWYWLHSWFDYWGQGTQVTVSS
polyreactivity (PSR sort gate): high polyreactivity

QVQHVESGGGLVQAGGSLRLSCAASGRIFPRYAMGWYGQTPGKERELVADISRSGGSTYYADSVKGRFTISRDNAKNSVYLQMNSLKPEDTAVYYCAASQYRRVKQGNYWGQGTQVTVSS
polyreactivity (PSR sort gate): high polyreactivity

QVQLVESGGGLVQAGGSLRLSCAASGRTLWLYAMGWYRQAPGKERELVAAITRSAGTTYYADSVKGRFTISRDNAKNTVYLQMNSLKPEDTAVYYCATRYPQSSLSTSSRSSSGYWGQGTQVTVSS
polyreactivity (PSR sort gate): high polyreactivity

QVQLVESGGRLVQAGGSLRLSCAPSGFIFGYYAMGWYRQAPGKERELVAAISPSGGRTYYADSVKGRFTISRDNAKITVFLQMNSLKPEDTAVYYCAAEYAYSLDPEEDYWGQGTQVTVSS
polyreactivity (PSR sort gate): high polyreactivity

QVQLQESGGGLVQAGGSLRLSCAASGSITRYYDMGWYRQAPGKEREFVAGISGGAITYYADSLKGRFTISRDNAKNTVYLQMNSLKPEDTAVYYCAADTGVYQYHSYWGQGTQVTVSS
polyreactivity (PSR sort gate): low polyreactivity

QVQLVESGGGLVQAGGSLRLSCAASGRIFYRNAMGWYRQAPGKERELVAAISRSGGTTYYADSVKGRFTISRDNAKNTVYLQMNSLKPEDTAVYYCAALVPYSYPGYYYWGQGTQVTVSS
polyreactivity (PSR sort gate): high polyreactivity

QVQLVESCGGLVQAGGSLPLSCAASGFTFYYYTMGWYRQAPGKERELVAVITGGGGSTYYADSVKGRFTISRDNAKNTVYLQMNSLKPEDTAVYYCAAKFYGWYRERGYDYWGQGTQVTVSS
polyreactivity (PSR sort gate): high polyreactivity

QVQLVESGGGLVQAGGSLRLSCAASGSIFAVNAMGWYRPAPGKERELVAAITSGGITYYADSVKGRFTISRDNAKNTVYLQMNSLKPEDTAVYYCATVFSVQGWYFGMNYWGQGTQVTVSS
polyreactivity (PSR sort gate): low polyreactivity

QVQLVESGGGLVQAGGSLRISCAASGIIFSVYAMAWYRQAPGKERELVAAISYSGGRTYYADSVKGRFTISRDNAKNTVYLQMNSLKPEDTAVYYCAAGFSLYLGFEYWGQGTQVTVSS
polyreactivity (PSR sort gate): high polyreactivity

QVQLVESGGGLVQAGGSLRLSCAASGSTFGRYAMGWYRQATGKEMELVAAITRSGGRTYYADSVKGRFTISRDNAKNNVYLQMNSLKPEDTAVYYCAAVGNLYYTSHWQYDYWGQGTQVTVSS
polyreactivity (PSR sort gate): high polyreactivity

QVQLVESGGGLVQAGGRLRLSCAASGSTLSLYDMGRYRQAPGKERELVAAITSSGGTYYADSVKGRFTISRDNAKNTVFLQMKSLKPEDTAVYYCNAYAKDARSYGFHRVNYWGQGTQVTVSS
polyreactivity (PSR sort gate): high polyreactivity

QVQLEESGGVLVQAGGSHRLRCAASGRTIGWYAMGWYRQAPRKERELVAAIRSSTGSTYYADSVKGRFTISRDNAKNTVFLQMNSLKPEDTAVYDCAKRRADYSPRYGYWGQGTQVTVSS
polyreactivity (PSR sort gate): high polyreactivity

QVQLVESGGGLVQAGGSLRLSCAASGRIFGRYAMGWYRQAPGKERELVAAITSGGRTSYADSVKGRFTISRDNAKNTVYLQMNSLKPEDTAVYYWNVVSRNSIRFDYWGQGTQVTVSS
polyreactivity (PSR sort gate): high polyreactivity

QVQLVESGGGLVQAGGSLRLSCAASGSTFPYYAMGWYRQAPWKERELVAAIRRRTGSTHYADSVKGRFSISRDNAMNTVYLQMNSLKQEDTAFYYCAADVSYRGNGHGYWGQGTQVNVSS
polyreactivity (PSR sort gate): low polyreactivity

QVQHVESGGGLVQAGGSLRLSCAASASTLYRNAMGWYRQAPGKEREFVAAISWSGGSTYYADSVMGRFTISRDNAKNTVYLQMNSLKPEDTAVYYCNADTDRYWPYEYDYWGHGTQVTVSS
polyreactivity (PSR sort gate): low polyreactivity

QVQLVESGGGLVQAGGSLRLSCAASGLIFSRYAMGWYRQAPGKEREFVAAINWNGGRTYYADSVKGRFTISRDNAKNTVYLQMNSLKPEDTAVYYCAATWIDYYVIYAYDYWGQGTQVTVSS
polyreactivity (PSR sort gate): high polyreactivity

QVQLVESGGGLVQAGGSLRLSCAASGFTFTYYAMGWSRQAPGKERELVATISSGGSTYYADSVKGRFTISRDNAKYTVYLQMISLKPEDTAVYYCAVTTYSGLYGFDYWGQGTQVTVSS
polyreactivity (PSR sort gate): low polyreactivity

QVQLVESGGGLVQAGGSLRLSCAASGSTFWQNAMGWYRPAPGKERELVAAIRSRGDRTYYADSVKGRFTISRDNAKNTVYLQMNSLKPEDTAVYYCAAYAGYSDQARYYYWGQGTLVTVSS
polyreactivity (PSR sort gate): high polyreactivity

QVQLVESGGGLVQAGGSLRLSCAASGYTFGFYAMGWYRQAPGKERELVAAISRSGGRTYYADSVKGRFTISRDNAKNTVYLQMNSLKPEDTAVYYCAAYQYGMDYWGQGTQVTVSS
polyreactivity (PSR sort gate): high polyreactivity

QVQLVESGGGLVQAGGSLRLSCAASGITLQYYAMGWYRQAPGKERQLVAGITSGGGTYYADSVKGRFTISRDNAKNTVYLQMNSLKPEDTAVYYCAARPWRSRYYGGLGRRFDYWGQGTQETVSS
polyreactivity (PSR sort gate): high polyreactivity

QVQLVESGGGLVQAGGSLRLSCAASGSIFAYYAMGWYRQAPGKERELVAAISRRGGSTYYADSVKGRFTISRDNAKNTVYLQMNSLKPEDTAVYYCAADGGGTTSLEYGNDYWGQGTQVTVSS
polyreactivity (PSR sort gate): high polyreactivity

QVQLVESGGGLVQAGGSLRLSCAASGRTFSAYARGWYRQAPGKERELVAAISRRGGSTYYADSVKGRFTISRDNAKNTVYLQMNSLKPEDTAVYYCAADVYKQYGYYYWGQGTLVTVSS
polyreactivity (PSR sort gate): high polyreactivity

QVQLVESGGGLVQAGGSLRLSCAASGFTFTFYALGWYRQAPGKERELVAAIRTSDGRTYYADSVKGRFTISRDNAKNTVYLQMNSLKPEDTAVYYCNARRYVGYDYWGQGSQVTVSS
polyreactivity (PSR sort gate): high polyreactivity

QVQLVESGGGLVQAGGSLRLSCAASGFTYPGYAMGWYRQAPRKERELVASITDNGANTYYADSVKGRFTISRDNAKNTVYLQMNSLKPEDTAVYYCAADPGRVTRVGVRYYYWGQGTQVTVSS
polyreactivity (PSR sort gate): high polyreactivity

QVQLVESGGRLVQAGGSLRLSCAASGSTFYTNAMGWYRQSPGKEMELVAAITSNGDSTYYADSVKGRFTISRDNAKNTVYLQMNSLKPEDTAVYYCAAREFYGGYDNNYDYWGQGTQVTVSS
polyreactivity (PSR sort gate): low polyreactivity

QVQLVESGGGLVQAGGSLRLSCAASGNIFSWYAMGWYRQAPGKERELVAAITSGGRTYYADSVKGRFTISRDNAKNTVYLQMNSLKPEDTAVYYCNALRRRQYHDDYWGQGTQVTVSS
polyreactivity (PSR sort gate): high polyreactivity

QVQLVESGGGVVQAGGSLRLSCASSGRTFSRYTMGWYRQAPGKERELVAVITASGTSTYYADSVKGRFTISRDNAKYTVYLQMISQKPEDTAVYYCAAYYPTYYRYSSLTMNYWGQGTQVTVSS
polyreactivity (PSR sort gate): high polyreactivity

QVQLVESGGGLVQAGGSLRLSCAASGRIFPVYAMGWYRQAPGKERELVASISSSGARTYYADSVKGRFTISRDNAKNTVYLQMNSLKPEDTAVYYCNAVRYFSSHSFISDYWGQGTQVTVSS
polyreactivity (PSR sort gate): low polyreactivity

QVHLVESGGGLVQAGGSLRLSCAASGRTFPYTAMGSYRQAPGKERELVAAISSGGSTNYADSVKGRFTISRDNAKNTVYLQMNSLKPEDTAVYYCATKYQRRPYRYYYWGQGTQVSVSS
polyreactivity (PSR sort gate): low polyreactivity

QVQLVESGGCLVQAGGSLRLSCAASGRTFYTYAMGWYRQAPGQERELVAAITYRGGNTYYADSVKGRFTISRDNAKNTVYLQMNSLKREDTAVYYCAATYKRRSGQSFDYWGQGTQVTVSS
polyreactivity (PSR sort gate): high polyreactivity

QVQLVESGGGLVQAGGSLRLSCAASGITVDSNAMGWYRQAPGKDRELVAAISSTGSTDYADSVKGRFTISRDNAKNTVYLQMNSLKPEDTAVYYCAADSRYYYYGYKISGDYDSWGQGTQVTVSS
polyreactivity (PSR sort gate): low polyreactivity

QVQLVESGGGLVQAGGSLRLSCAASGSIFLHNAMGWYRQAPGKERELVAVITSRGGSTYYADSVKGRFTISRDNAKNTVYLQMNSLKPEDTAVYYCAADSRQSDYYYQPTKIDYWGQGTQVTVSS
polyreactivity (PSR sort gate): low polyreactivity

QVQLVESGGALDQAGGSLRLICAASGRIFWYNAMGWYRQAPGKERELVAGIRSGGSTNYADSVKGRFTISRDNAKNPVYLQMNSLKPEDTAVYYCAARRWRTQDRSHFYYWGQGTQVTVSS
polyreactivity (PSR sort gate): low polyreactivity

QVQLVESGGGLVQAGGRLRLSCAASGITFWTYAMGWYRQAPGKERELVARISKSGARTFYADSVKGRFTISRDNAKNTVYLQMNSLKPEDTAVYYCAADRGPRPVTWYDYWGQGTQVTVSS
polyreactivity (PSR sort gate): high polyreactivity

QVQLVESGVGLVQAGGSLSLSCAASGTFVLYAMGWYRQAPGKERELVAAISKTGRTYYADSVKGRFTISRDNAKNTVYLQMNSLKPEDTAVYYCAAQRFSKFGYWGQGTQVTVSS
polyreactivity (PSR sort gate): high polyreactivity

QVQLVESGGGLVQAGGSLRLSCAASGFIFRVYAMGWYRQAPGKERELVAAITRAGNTYYADSVKGRFTISRDNAMNTVYLQMNSLKPEDTAVYYCNKYHYWASPMNYWGQGTQVTVSS
polyreactivity (PSR sort gate): high polyreactivity

QVQLVESGGGLVQAGGSLRLSCAASGFIFAEYAMGWYRQAPGKERELVVAIDVGGGSTYYADSVKGRFTISRDNAKNTVYLQMNSLKPEDTAVYYCAATQYGYWVPYQGFDYWGQGTQVTVSS
polyreactivity (PSR sort gate): low polyreactivity

QVQLVESGGGLVQAGGSLRLSCAASGFIFTYYDMGWYRQAPGKERELVASISWDGGRTYYADSVKGRFTISRDNAKNTVYLQMNSLKPEDTAVYYCNADGSSYWYPVPLDGGDYWGQGTQVTVSS
polyreactivity (PSR sort gate): low polyreactivity

QVQLVESGGGLVQAGGSLRLSCAASGSIFLHNAMGWYRQAPGKERVLVAVITSRGGSTYYADSVKGRFTISRDNAKNPVYLQMNSLKPEDTAVYYCAAPAYHKRTSRGDYWGQGTQVTVSS
polyreactivity (PSR sort gate): low polyreactivity

QVQLVESGGGLVQAGGSLRLSCAASGRTFYSYAMGWYRQAPGKERELVAGITWSGTSTYYADSVKGRFTISRDNAKNTVYLQMNSLKPEDTAVYYCAAATLYSRYDYWGQGTQVTVSS
polyreactivity (PSR sort gate): low polyreactivity
